From paper PMC5461540 (2017)
Read-outs that look alike come from different tables or passages of the source. Where no end group is shown, it is not given here. [ ]: non-standard residue; d: D form. pS = N[C@@H](COP(=O)(O)O)C(=O)O

T1: MOB1B (tags cleaved) (human, UniProt Q7L9L4-2 2-216)
T1 chain: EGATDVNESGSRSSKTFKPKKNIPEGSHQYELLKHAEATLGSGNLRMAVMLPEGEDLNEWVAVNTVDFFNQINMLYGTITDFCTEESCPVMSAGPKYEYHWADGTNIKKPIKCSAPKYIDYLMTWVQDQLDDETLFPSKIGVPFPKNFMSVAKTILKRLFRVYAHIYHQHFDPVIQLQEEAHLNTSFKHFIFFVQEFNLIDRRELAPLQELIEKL

T2: MOB3B (human, UniProt Q86TA1 2-216)
T2 chain: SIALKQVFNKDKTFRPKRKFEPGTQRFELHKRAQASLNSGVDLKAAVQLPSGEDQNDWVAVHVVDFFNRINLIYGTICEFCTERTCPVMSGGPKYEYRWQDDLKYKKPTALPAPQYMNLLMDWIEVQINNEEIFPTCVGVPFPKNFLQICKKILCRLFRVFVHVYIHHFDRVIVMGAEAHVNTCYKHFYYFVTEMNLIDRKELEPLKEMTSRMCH

T3: yeast Mob1 (yeast, UniProt P40484 79-314)
T3 chain: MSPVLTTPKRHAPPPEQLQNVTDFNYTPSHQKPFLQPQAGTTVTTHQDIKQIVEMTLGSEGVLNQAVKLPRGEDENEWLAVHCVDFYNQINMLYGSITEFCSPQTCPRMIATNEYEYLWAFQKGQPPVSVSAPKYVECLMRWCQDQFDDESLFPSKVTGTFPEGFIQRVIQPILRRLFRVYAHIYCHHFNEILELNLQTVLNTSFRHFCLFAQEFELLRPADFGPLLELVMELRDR

T4: MOB3C (human, UniProt Q70IA8 2-216)
T4 chain: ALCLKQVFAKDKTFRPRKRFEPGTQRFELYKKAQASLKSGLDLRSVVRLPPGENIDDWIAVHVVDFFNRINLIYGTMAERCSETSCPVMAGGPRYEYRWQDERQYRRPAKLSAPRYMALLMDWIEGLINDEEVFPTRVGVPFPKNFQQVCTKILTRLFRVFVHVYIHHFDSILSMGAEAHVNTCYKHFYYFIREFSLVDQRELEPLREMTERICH

T5: MOB3A (human, UniProt Q96BX8 2-217)
T5 chain: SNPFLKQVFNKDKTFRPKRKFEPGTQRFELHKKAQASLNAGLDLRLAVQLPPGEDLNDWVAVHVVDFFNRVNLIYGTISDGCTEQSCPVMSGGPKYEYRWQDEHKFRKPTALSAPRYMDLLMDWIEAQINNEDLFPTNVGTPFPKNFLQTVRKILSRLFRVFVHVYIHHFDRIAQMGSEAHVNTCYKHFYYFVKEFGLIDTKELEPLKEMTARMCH

T6: FITC labeled MST1 pT380 phosphopeptide (human, UniProt Q13043, phosphothreonine at 380; FITC label (position not given))
T6 sequence (Q13043 whole entry, looked up): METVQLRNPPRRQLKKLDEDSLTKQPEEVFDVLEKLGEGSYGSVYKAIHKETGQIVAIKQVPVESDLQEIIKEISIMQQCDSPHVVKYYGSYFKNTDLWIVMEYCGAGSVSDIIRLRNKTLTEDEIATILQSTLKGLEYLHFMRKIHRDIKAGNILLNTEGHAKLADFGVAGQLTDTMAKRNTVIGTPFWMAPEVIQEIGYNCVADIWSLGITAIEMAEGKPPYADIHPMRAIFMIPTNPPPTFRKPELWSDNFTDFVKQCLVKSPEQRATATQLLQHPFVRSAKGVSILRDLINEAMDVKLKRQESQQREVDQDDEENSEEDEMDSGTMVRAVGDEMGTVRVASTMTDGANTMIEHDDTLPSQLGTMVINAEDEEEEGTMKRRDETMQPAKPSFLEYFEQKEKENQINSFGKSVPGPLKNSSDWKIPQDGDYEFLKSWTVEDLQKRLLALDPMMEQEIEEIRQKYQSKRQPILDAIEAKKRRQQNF

T7: FITC labeled MST1 pT329 phosphopeptide (human, UniProt Q13043, phosphothreonine at 329; FITC label (position not given))
T7 sequence (Q13043 whole entry, looked up): T6 sequence (Q13043 whole entry, looked up)

T8: FITC labeled MST1 pT340 phosphopeptide (human, UniProt Q13043, phosphothreonine at 340; FITC label (position not given))
T8 sequence (Q13043 whole entry, looked up): T6 sequence (Q13043 whole entry, looked up)

B1: FITC labeled phosphorylated MST1 T367 peptide (peptide)
chain: DDTLPSQLGTMVINA
modifications: also: phosphothreonine at 367 (place in peptide not given here), FITC label, position not given here
B2: MOB1A wild-type (natural protein)
chain: SFLFSSRSSKTFKPKKNIPEGSHQYELLKHAEATLGSGNLRQAVMLPEGEDLNEWIAVNTVDFFNQINMLYGTITEFCTEASCPVMSAGPRYEYHWADGTNIKKPIKCSAPKYIDYLMTWVQDQLDDETLFPSKIGVPFPKNFMSVAKTILKRLFRVYAHIYHQHFDSVMQLQEEAHLNTSFKHFIFFVQEFNLIDRRELAPLQELIEKLGSKDR
B3: FITC labeled phosphorylated MST1 T353 peptide (peptide)
chain: VASTMTDGANTMIEH
modifications: also: phosphothreonine at 353 (place in peptide not given here), FITC label, position not given here

Legend:
[1] = molecular target: T1, MOB1B (tags cleaved); test: FP
[2] = molecular target: T2, MOB3B; test: FP
[3] = molecular target: T3, yeast Mob1; test: FP
[4] = molecular target: T4, MOB3C; test: FP
[5] = molecular target: T5, MOB3A; test: FP
[6] = molecular target: B2; test: FP
[7] = molecular target: B2; test: FP
[8] = molecular target: T3, yeast Mob1; test: FP
[9] = molecular target: T6, FITC labeled MST1 pT380 phosphopeptide; test: FP
[10] = molecular target: MST1 pT380/pT387 peptide; test: FP; doubly phosphorylated pT380/pT387
[11] = molecular target: MST1 pT329/pT340 peptide; test: FP; doubly phosphorylated pT329/pT340
[12] = molecular target: T7, FITC labeled MST1 pT329 phosphopeptide; test: FP
[13] = molecular target: T8, FITC labeled MST1 pT340 phosphopeptide; test: FP
[14] = molecular target: T6, FITC labeled MST1 pT380 phosphopeptide; test: FP; remark: listed apart in the source
[15] = molecular target: T7, FITC labeled MST1 pT329 phosphopeptide; test: FP; remark: listed apart in the source
[16] = molecular target: T8, FITC labeled MST1 pT340 phosphopeptide; test: FP; remark: listed apart in the source

What does the source list for B1?
Kd [1]: 0.78 µM; Kd [2]: 2.6 µM; Kd [3]: 29.3 µM; Kd [4]: 2.3 µM; Kd [5]: 2.9 µM; Kd [6]: 0.58 µM; Kd [7]: 0.8 µM; Kd [8]: 29 µM

YH[pS]VVRYA (also: FITC label, position not given here) [optimized Nud1-like phosphoserine containing peptide (FITC labeled)] was tested. Which Kd [7] did it give?
The Kd was 30 µM.

And the Kd [8]?
Its Kd is 0.4 µM.

How did the Kd [9] turn out when B2 was run?
Its Kd is 186 µM.

And the Kd [10]?
The Kd was 95 µM.

What about the Kd [11] of the same binder?
Its Kd is 49 µM.

And the Kd [12]?
Its Kd is 47 µM.

What about the Kd [13] of the same binder?
Its Kd is 66 µM.

What about the Kd [14] of the same binder?
The Kd was 185 µM.

And the Kd [15]?
Its Kd is 46.5 µM.

And the Kd [16]?
The Kd was 66.1 µM.

For B3, which Kd [6] is on record?
Its Kd is 0.31 µM.
